Reference: publication PMC3674325

Assays:
APOBEC3A E72Q = APOBEC3A E72Q (Homo sapiens, UniProt P31941 1-199, E72Q); test: NMR titration
APOBEC3A (A3A) wild-type [1] = molecular target: T1, APOBEC3A (A3A) wild-type (Homo sapiens, UniProt P31941 1-199); test: NMR titration
APOBEC3A (A3A) wild-type [2] = molecular target: T1, APOBEC3A (A3A) wild-type; test: EMSA
APOBEC3A (A3A) wild-type [3] = molecular target: T1, APOBEC3A (A3A) wild-type; test: NMR titration; remark: listed apart in the source

T1 sequence (P31941 whole entry): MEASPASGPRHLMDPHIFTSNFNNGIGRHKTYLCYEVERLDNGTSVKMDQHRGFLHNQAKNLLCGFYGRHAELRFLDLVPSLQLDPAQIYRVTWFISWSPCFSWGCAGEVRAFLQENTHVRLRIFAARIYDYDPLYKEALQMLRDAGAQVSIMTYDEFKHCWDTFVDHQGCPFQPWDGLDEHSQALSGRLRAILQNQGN
Sequence of APOBEC3A E72Q (P31941 whole entry E72Q): as the sequence (P31941 whole entry) above, with E72Q counted along it

Q: How did the Kd (APOBEC3A E72Q) turn out when ATTATTTCATTTATT (ssDNA) [ATTATTTCATTTATT (15-nt substrate)] was run?
A: Its Kd is 55 ± 11 µM.

Q: TCATTT (ssDNA, C at position 2 converted to dU during titration) [TCATTT (6-nt; value is for dU product)] was tested. Which Kd (APOBEC3A (A3A) wild-type [1]) did it give?
A: The Kd was 194 ± 18 µM.

Q: How did the “apparent K (half saturation)” value (APOBEC3A (A3A) wild-type [2]) turn out when AUUAUUAUUAUUAUUAUUAUUUCAUUUAUUUAUUUAUUUA (ssRNA) [40-nt ssRNA JL931] was run?
A: The value was ~40 µM.

Q: AAACCAAAA (ssDNA, C deaminated to dU during titration) [AAACCAAAA (value is for dU-containing product)] was tested. Which Kd (APOBEC3A (A3A) wild-type [1]) did it give?
A: The Kd was 94 ± 11 µM.

Q: With AAACCCAAA (ssDNA, C deaminated to dU during titration) [AAACCCAAA (value is for dU-containing product)] as the binder, how does the Kd (APOBEC3A (A3A) wild-type [1]) read?
A: The Kd was 91 ± 15 µM.

Q: For ATTATTTUATTTATT (ssDNA, dU at position 8) [ATTATTTUATTTATT (15-nt product)], which Kd (APOBEC3A (A3A) wild-type [3]) is on record?
A: Its Kd is 57 ± 11 µM.

Q: For AAACAAAAA (ssDNA, C deaminated to dU during titration) [AAACAAAAA (value is for dU-containing product)], which Kd (APOBEC3A (A3A) wild-type [1]) is on record?
A: Its Kd is 161 ± 19 µM.

Q: How did the Kd (APOBEC3A (A3A) wild-type [3]) turn out when ATTTUATTT (ssDNA, dU at position 5) [ATTTUATTT (9-nt product)] was run?
A: The Kd was 58 ± 8 µM.

Q: Which Kd (APOBEC3A (A3A) wild-type [2]) does the source give for ATTATTATTATTATTATTATTTCATTTATTTATTTATTTA (ssDNA) [40-nt ssDNA JL895] here?
A: Its Kd is ~80 µM.
